Measured values as given in patent US20200405841A1 (GlaxoSmithKline, published 2020).

Key:
[1] = molecular target: T1, UspA2 of Moraxella catarrhalis Dutch isolate F10 (Moraxella catarrhalis); assay: cell-based or functional assay
T1 chain: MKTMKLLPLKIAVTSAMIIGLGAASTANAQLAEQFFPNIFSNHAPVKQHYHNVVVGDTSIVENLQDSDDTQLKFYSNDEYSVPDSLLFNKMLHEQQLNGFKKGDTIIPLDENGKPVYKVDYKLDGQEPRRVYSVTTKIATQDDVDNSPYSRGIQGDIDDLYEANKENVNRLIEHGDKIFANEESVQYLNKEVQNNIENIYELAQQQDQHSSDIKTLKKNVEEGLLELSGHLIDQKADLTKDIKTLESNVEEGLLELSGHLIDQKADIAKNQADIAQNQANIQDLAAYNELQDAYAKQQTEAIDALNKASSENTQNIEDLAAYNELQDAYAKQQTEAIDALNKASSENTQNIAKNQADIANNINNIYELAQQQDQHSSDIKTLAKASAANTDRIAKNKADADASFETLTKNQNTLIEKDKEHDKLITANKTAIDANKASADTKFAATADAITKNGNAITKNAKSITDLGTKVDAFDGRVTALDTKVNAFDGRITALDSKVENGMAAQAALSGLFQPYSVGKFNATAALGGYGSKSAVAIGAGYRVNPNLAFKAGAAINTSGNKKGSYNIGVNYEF

[2] = molecular target: UspA2 of Moraxella catarrhalis Denmark isolate BBH18 (Moraxella catarrhalis); assay: cell-based or functional assay
[3] = molecular target: T2, UspA2 of Moraxella catarrhalis strain ATCC 25238 (Moraxella catarrhalis); assay: cell-based or functional assay
T2 chain: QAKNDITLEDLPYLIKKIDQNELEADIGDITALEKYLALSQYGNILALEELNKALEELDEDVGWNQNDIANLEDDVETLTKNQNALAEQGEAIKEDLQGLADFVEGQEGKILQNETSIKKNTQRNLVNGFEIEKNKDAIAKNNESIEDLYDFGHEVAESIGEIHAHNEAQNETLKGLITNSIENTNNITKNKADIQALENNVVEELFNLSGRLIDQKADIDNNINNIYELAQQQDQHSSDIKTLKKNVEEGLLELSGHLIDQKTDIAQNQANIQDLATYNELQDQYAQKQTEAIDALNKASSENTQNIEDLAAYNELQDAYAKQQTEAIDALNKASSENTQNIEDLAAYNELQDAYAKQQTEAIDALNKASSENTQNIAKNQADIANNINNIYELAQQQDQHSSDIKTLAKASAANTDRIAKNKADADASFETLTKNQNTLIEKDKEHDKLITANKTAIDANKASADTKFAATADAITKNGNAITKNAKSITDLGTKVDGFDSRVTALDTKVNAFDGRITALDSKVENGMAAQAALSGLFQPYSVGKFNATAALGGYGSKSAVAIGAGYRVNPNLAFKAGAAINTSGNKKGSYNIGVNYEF

[4] = molecular target: UspA1 of Moraxella catarrhalis strain ATCC 43617 (Moraxella catarrhalis); assay: cell-based or functional assay
[5] = molecular target: UspA2H of Moraxella catarrhalis UK isolate 296 (AERIS study) (Moraxella catarrhalis); assay: cell-based or functional assay
[6] = molecular target: UspA2H of Moraxella catarrhalis UK isolate 415 (AERIS study) (Moraxella catarrhalis); assay: cell-based or functional assay
[7] = molecular target: UspA2H of Moraxella catarrhalis UK isolate 268 (AERIS study) (Moraxella catarrhalis); assay: cell-based or functional assay
[8] = molecular target: UspA2H of Moraxella catarrhalis UK isolate 240 (AERIS study) (Moraxella catarrhalis); assay: cell-based or functional assay
[9] = molecular target: UspA2H of Moraxella catarrhalis UK isolate 193 (AERIS study) (Moraxella catarrhalis); assay: cell-based or functional assay
[10] = molecular target: T3, recombinant soluble UspA2 (SEQ ID NO: 53) (Moraxella catarrhalis); assay: negative-stain electron microscopy of the complex
T3 construct: also called MC-009; soluble UspA2 recombinant protein
T3 chain: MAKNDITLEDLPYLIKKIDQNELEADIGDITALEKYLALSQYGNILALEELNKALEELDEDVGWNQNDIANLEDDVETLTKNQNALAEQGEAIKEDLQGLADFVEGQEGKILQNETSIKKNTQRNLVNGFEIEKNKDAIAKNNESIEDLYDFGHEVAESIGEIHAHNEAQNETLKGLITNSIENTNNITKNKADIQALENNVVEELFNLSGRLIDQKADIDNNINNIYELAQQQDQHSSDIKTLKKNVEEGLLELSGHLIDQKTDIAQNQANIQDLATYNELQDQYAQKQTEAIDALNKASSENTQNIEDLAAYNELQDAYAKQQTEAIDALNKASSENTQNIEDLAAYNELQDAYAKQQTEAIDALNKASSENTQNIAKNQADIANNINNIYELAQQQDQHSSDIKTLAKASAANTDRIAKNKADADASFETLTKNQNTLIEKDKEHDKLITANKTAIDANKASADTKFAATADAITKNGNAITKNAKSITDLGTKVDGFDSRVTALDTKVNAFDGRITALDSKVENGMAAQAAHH

B1: FHUSPA2/10 monoclonal antibody (antibody, V domains shown)
VH: EVQLQQSGTVLARPGASVKMSCKASGYSFTSYWMHWVKQRPGQGLEWIGAIYPGNSDTSYNQKFKGKAKLTAVTSASTAYMELSNLTNEDSAVYSCTLLRFLDAYWGQGTLVTVSA
VL: QIVLSQSPAILSASPGEKVTMTCRASSSVSYMHWYQQKPGSSPKPWIYATSNLASGVPARFSGSGSGTSYSLTISRVEAEDAATYYCQQWSSNPPTFGGGSKLEIK
notes: Hybridoma-secreted mouse monoclonal antibody; Isotype confirmed as IgG2a, light chain of kappa class; also called FHUSPA2/10 mAb; anti-UspA2 monoclonal antibody FHUSPA2/10
- bactericidal activity (mid-point titer) [1]: 528000 reciprocal dilution inducing 50% of killing
- bactericidal activity (mid-point titer) [2]: 386000 reciprocal dilution inducing 50% of killing
- bactericidal activity (mid-point titer) [3]: 1.88e+06 reciprocal dilution inducing 50% of killing
- bactericidal activity (mid-point titer) [4]: < 100 reciprocal dilution inducing 50% of killing
- bactericidal activity (mid-point titer) [5]: 114000 reciprocal dilution inducing 50% of killing
- bactericidal activity (mid-point titer) [6]: 256000 reciprocal dilution inducing 50% of killing
- bactericidal activity (mid-point titer) [7]: > 384000 reciprocal dilution inducing 50% of killing
- bactericidal activity (mid-point titer) [8]: > 25600 reciprocal dilution inducing 50% of killing
- bactericidal activity (mid-point titer) [9]: > 640000 reciprocal dilution inducing 50% of killing
- binding result [10]: binds
